These results are taken from PMC6587469.

Where “and” joins values, the source holds several entries; their conditions need not be identical. Equal entries are not always repeated.

Assay [1] addresses MabSelect SuRe protein A ligand: tetrameric chain of Z-domains (recombinant form of the B domain of (Staphylococcus aureus)). The experiment in a line: SAXS.
Assay [2] has the same target. The assay is described as follows: batch adsorption isotherm.

Consider Trastuzumab (antibody), for which the stoichiometry N (antibody : protein A chain) in assay [1] was 1 and 2. Besides, the stoichiometry N (antibody molecules per ligand) in assay [2] amounted to 2.
